We go through 1 molecule from patent publication US20130209489A1 (Amgen, published 2013).

The target in experiment [1] is T1, mature human myostatin (human, UniProt O14793 267-375). Put plainly: cell-based or functional assay.
In experiment [2] the target is T1, mature human myostatin. Put plainly: cell-based or functional assay. This is another data set of the same source.
A further experiment deals with T2, GDF11 (UniProt O95390 299-407).
T2 construct: also called growth and differentiation factor 11; BMP-11
T2 sequence (O95390 299-407 limits assumed): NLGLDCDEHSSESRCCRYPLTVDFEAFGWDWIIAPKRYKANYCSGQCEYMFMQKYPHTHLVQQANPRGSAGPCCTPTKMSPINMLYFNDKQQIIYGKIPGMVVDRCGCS
Description: separate experiment, method not named (Biacore section).

Experiment [3] addresses T1, mature human myostatin. Put plainly: KinExA solution equilibrium assay, myostatin-coated beads. An excerpt:
(§1) Solution-based equilibrium-binding assays using KinExA® technology (Sapidyne Instruments, Inc.) are employed to determine the dissociation equilibrium (Kd) of myostatin binding to antibody molecules. This solution-based assay is considered to be more sensitive than the BIAcore® assay in some instances. Reacti-Gel 6×(a highly reactive, cross-linked 6% agarose bead for immobilization of amine-containing ligands; Thermo Scientific Pierce, Rockford, Ill.) is pre-coated with about 50 microG/ml myostatin overnight, and then blocked with bovine serum albumin (BSA; 1 mg/ml). Antibody samples (10 pM, and 30 pM) were incubated with various concentrations (0.5 pM to 5 nM) of myostatin in sample buffer containing 0.1 mg.ml BSA at room temperature for eight hours before being run through the myostatin-coated beads. The amount of the bead-bound antibody is quantified by fluorescent (Cy5) labeled goat anti-human-Fc antibody at 1 mg/ml in SuperBlock® (an optimized protein-based solution for blocking excess binding sites; Thermo Scientific Pierce, Rockford, Ill.). The binding signal is proportional to the concentration of free antibody at equilibrium with a given myostatin concentration. Kd is obtained from the nonlinear regression of the competition curves using a dual-curve one-site homogeneous binding model provided in the KinExA™ software (Sapidyne Instruments, Inc.).
For orientation: A kinetic exclusion assay measures how much of one partner remains free in solution.

A further experiment addresses promyostatin (UniProt O14793 24-375, limits assumed). Description: KinExA solution equilibrium assay, promyostatin-coated beads.
From the text: as §1, with “Kd is obtained from the nonlinear regression of the competition curves using a dual-curve one-site homogeneous binding model provided in the KinExA™ software (Sapidyne Instruments, Inc.).” left out
A KinExA™ assay similar to the one previously described was run, using promyostatin instead of mature myostatin. […] The amount of the bead-bound antibody is quantified substantially as previously described.

The target in experiment [4] is T3, Peptide B (CNBr peptide, 85-101) (human).
T3 construct: both are this molecule; also called Peptide D; Reduced CNBr peptide
T3 peptide: LYFNGKEQIIYGKIPAM
Put plainly: BIAcore competition: 12A5-5 pre-incubated with the HPLC peptide fraction in solution, then passed over immobilized human myostatin. As for the experimental part: (§2) The strategy for characterizing the epitopes bound by anti-myostatin neutralizing monoclonal antibodies was to use various CNBr—, LysC— and chymotrypsin-generated human myostatin peptides and determine which peptides could be bound by the antibody. In one aspect, this was tested in a BIAcore® competition binding assay where the binding of 12A5-5 to human myostatin immobilized on a BIAcore® chip was determined in the presence or absence of each of the various isolated HPLC peptide fractions. In the absence of any competing peptides, 12A5-5 was able to bind the human myostatin on the chip and produce an RU (resonance unit) response. […] This general procedure was repeated individually for each peptide. […] These binding patterns, coupled with the known identity of the various myostatin peptides were used to determine which regions of myostatin were important (or necessary) for the binding of antibody 12A5-5.

The target in experiment [5] is T4, Peptide I (reduced LysC peptide, 55-78) (human).
T4 construct: From TCEP reduction of peptide G
T4 peptide: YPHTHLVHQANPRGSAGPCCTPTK
The description is as above. As for the experimental part:
as §2

The target in experiment [6] is T5, Peptide M (reduced LysC peptide, 1-36) (human).
T5 construct: From TCEP reduction of peptide G
T5 peptide: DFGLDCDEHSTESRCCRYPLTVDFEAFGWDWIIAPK
The experiment is described as above. The method, then: as §2

Experiment [7] addresses T6, Peptide N (chymotryptic peptide, Cys knot, dimer) (human).
T6 chain 1: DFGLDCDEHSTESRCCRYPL
T6 chain 2: KANYCSGECEFVF
T6 chain 3: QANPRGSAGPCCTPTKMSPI
T6 chain 4: GKIPAMVVDRCGCS
The experiment is described as above. As for the experimental part: as §2

B1: anti-myostatin neutralizing monoclonal antibody 12A5-5 (antibody, V domains shown)
VH: EVQLVESGGGLVQPGGSLRLSCAASGFTFSRYWMNWVRQAPGKGLEWVAQIRLKSDNYATHYAESVKGRFTISRDNAKNSLYLQMNSLRAEDTAVYYCTEGLDYWGQGTTVTVSS
VL: DIQMTQSPSSLSASVGDRVTITCKASQDINKYVAWYQQKPGKAPKLLIYYTSWLQPGVPSRFSGSGSGTDFTFTISSLQPEDIATYYCLQYDNLLYTFGQGTKLEIK
notes: in the KinExA assay it was detected with a goat anti-human-Fc antibody, so it carries a human Fc; also called Mab 12A5-5; MAb 12A5-5
Consider B1, for which the “IC50 (nM), C2C12/pMARE luciferase reporter cell myostatin activity assay” value in the experiment with mature human myostatin [1] is 1.85 nM. Besides, in the experiment with mature human myostatin [2], the “Cell Assay (IC50), inhibition of myostatin activity” value came to 1.2 nM. The Kd (usually the equilibrium constant for the complex coming apart) with GDF11 was ~180 nM; with mature human myostatin [3] it was ~0.002 nM; with promyostatin it was ~0.002 nM. In addition, the binding result in [4], in experiment [5], in [6] and in [7] was “no binding (tested: peptide concentration not printed)” throughout.
